Experimental data as given in patent US20150118725A1 (GLOBAL BIOENERGIES, priority 2012, published 2015).

What was measured:
[1] = tested on: Streptococcus mitis MDP decarboxylase (strain B6, SEQ ID NO: 10); assay: Phosphotransferase activity on mevalonate (pyruvate kinase/lactate dehydrogenase coupled ADP assay); format: biochemical; conditions: 40° C., pH 7.5, 5 mM ATP, 0 to 5 mM R,S-sodium mevalonate
From the text: (§1) 1.5 U/ml Lactate dehydrogenase
(§2) The pH was adjusted to 7.5.

[2] = Complementation assay: Th. acidophilum MDP decarboxylase (mutant L200E) with each tested MDP decarboxylase, isoprenol by GC-FID; format: biochemical; conditions: 0.01 mg Th. acidophilum (L200E) enzyme + 0.5 mg tested enzyme in 0.1 ml, 200 mM mevalonate, 37° C., 24 h (FIG. 7)
Procedure: MDP decarboxylases were evaluated using a complementation assay. Th. acidophilum MDP decarboxylase (mutant L200E) was incubated together with each tested enzyme from the library.
The combined enzymatic assay was carried out under the following conditions:
The pH was adjusted to 7.5
0.01 mg of the Th. acidophilum enzyme and 0.5 mg of the MDP decarboxylase to be tested were added to 0.1 ml of reaction mixture. Reaction mixture containing only […] of the Th. acidophilum MDP decarboxylase (L200E) was used as reference. The assays were incubated without shaking at 37° C. for 24 h in a sealed vial (Interchim). The isoprenol production was analyzed as follows. An aliquot of 50 μl of liquid phase was removed and mixed with 100 μl of ethyl acetate. 100 μl of the upper ethyl acetate phase was transferred to a clean vial for analysis by gas chromatography. Commercial isoprenol was used as reference. The samples were analyzed on a Varian GC-430 gas chromatograph equipped with a flame ionization detector (FID). […] The retention time of isoprenol in these conditions was 7.38 min.

[3] = substrate: CC(O)(CCO)CC(=O)O; assay: purified protein, by the assay type; format: biochemical, Thermoplasma acidophilum; conditions: other: 40° C., pH 7.5, 5 mM ATP, 0 to 5 mM R,S-sodium mevalonate
From the text: as §1, §2

[4] = Phosphotransferase activity: ADP release in the pyruvate kinase/lactate dehydrogenase coupled assay; format: biochemical; conditions: 40° C., pH 7.5
From the text: as §1, §2

[5] = Combined enzymatic assay: Th. acidophilum (L200E) and S. mitis MDP decarboxylases, isoprenol by GC; format: biochemical; conditions: 0 to 0.4 mg S. mitis enzyme with 0.01 mg Th. acidophilum (L200E) in 0.1 ml, 37° C., 24 h (FIG. 10)
Procedure: 0.01 mg of purified MDP decarboxylase from Th. acidophilum (mutant L200E) and 0.2 mg of purified MDP decarboxylase from S. mitis were added to 0.1 ml of reaction mixture. Control reactions were performed in which either no enzyme was added, or no ATP was added.
To validate the combined action of two enzymes, a series of additional controls were carried out. In one assay, MDP decarboxylase from S. mitis (0.21 mg) was the only enzyme using as the catalyst. In the other experiment, 0.21 mg of the Th. acidophilum (L200E) enzyme was added, lacking S. mitis decarboxylase. The assays were incubated in a sealed vial (Interchim) without shaking for 24 hours at 37° C. Isoprenol extraction and analysis were performed according to the procedure described in Example 4.
The effect of S. mitis MDP decarboxylase concentration was assessed under the following conditions:
0.01 mg of purified MDP decarboxylase from Th. acidophilum (mutant L200E) and a varying amount (from 0 to 0.4 mg) of purified MDP decarboxylase from S. mitis were added to 0.1 ml of reaction mixture. The mixtures were then incubated without shaking at 37° C. for 24 h in a sealed vial. Isoprenol extraction and analysis were performed according to the procedure described in Example 4.

Molecule: CC(O)(CCO)CC(=O)O (stereo not drawn) [mevalonate]
- Km [1]: 200 µM
- kcat [1]: 0.002 s⁻¹

B1: S. cerevisiae MDP decarboxylase: MDP decarboxylase of Saccharomyces cerevisiae, SEQ ID NO: 22 (protein, listed as Saccharomyces cerevisiae)
chain: MTVYTASVTAPVNIATLKYWGKRDTKLNLPTNSSISVTLSQDDLRTLTSAATAPEFERDTLWLNGEPHSIDNERTQNCLRDLRQLRKEMESKDASLPTLSQWKLHIVSENNFPTAAGLASSAAGFAALVSAIAKLYQLPQSTSEISRIARKGSGSACRSLFGGYVAWEMGKAEDGHDSMAVQIADSSDWPQMKACVLVVSDIKKDVSSTQGMQLTVATSELFKERIEHVVPKRFEVMRKAIVEKDFATFAKETMMDSNSFHATCLDSFPPIFYMNDTSKRIISWCHTINQFYGETIVAYTFDAGPNAVLYYLAENESKLFAFIYKLFGSVPGWDKKFTTEQLEAFNHQFESSNFTARELDLELQKDVARVILTQVGSGPQETNESLIDAKTGLPKE
- isoprenol production in combined assay [2]: highest production of isoprenol

B2: Thermoplasma acidophilum MDP decarboxylase mutant L200E (SEQ ID NO: 16) (Thermoplasma acidophilum DSM 1728; L200E) (protein)
chain: MLHHHHHHTYRSIGSTAYPTIGVVLLGGIANPVTRTPLHTSAGIAYSDSCGSIRSETRIYADEATHIYFNGTESTDDNRSVRRVLDRYSSVFEEAFGTKTVSYSSQNFGILSGSSDAGAASIGAAILGLKPDLDPHDVENDLRAVSESAGRSLFGGLTITWSDGFHAYTEKILDPEAFSGYSIVAFAFDYQRNPSDVIHQNIVRSDEYPARKKHADEHAHMIKEYAKTNDIKGIFDLAQEDTEEYHSILRGVGVNVIRENMQKLISYLKLIRKDYWNAYIVTGGSNVYVAVESENADRLFSIENTFGSKKKMLRIVGGAWHRRPE
- Km [3]: 500 µM
- kcat [3]: 2.5 s⁻¹
- kcat/Km [3]: 5000 M⁻¹ s⁻¹

B3: Streptococcus mitis: MDP decarboxylase from Streptococcus mitis (strain B6), SEQ ID NO: 10 (protein)
chain: MDREPVTVRSYANIAIIKYWGKKKEKEMVPATSSISLTLENMYTETTLSSLPTDATADAFYINGQLQNEAEHVKMSKIIDRYRPDGDGFVRIDTQNSMPTAAGLSSSSSGLSALVKACNAYFKLGLNRSQLAQEAKFASGSSSRSFYGPLGAWDKDSGEIYPVETGLKLAMIMLVLEDKKKPISSRDGMKLCVETSTTFDDWVRQSEKDYQDMLVYLKANDFAKVGELTEKNALAMHATTKTASPAFSYLTDASYEAMDFVRQLREQGEACYFTMDAGPNVKVLCQEKDLEHLSEIFGQRYRLIVSKTKDLSQDGCC
modifications: Streptococcus mitis (strain B6)
- phosphotransferase activity (ADP production in the presence of mevalonate) [4]: reproducible increase in ADP production
- effect of enzyme concentration on amount of produced isoprenol [5]: increase of the amount of produced isoprenol
- isoprenol production in combined assay [2]: highest production of isoprenol
